Measured values reported in PMC4795942 (Protein Engineering, Design and Selection, 2016).

Target: biotinylated MmQSOX1Trx with a carboxy-terminal AviTag (Mus musculus, UniProt Q8BND5, biotin (on the AviTag))
Experiment: flow cytometry on cells

B1: scFv492.1 template c with H49S S50M Y52Q (top binder of the CDR L2 library) displayed on yeast (scFv, V domains shown)
VH: QVQLKQSGPGLVAPSQSLSITCTVSGFSLTGYGVNWVRQSPGKGLEWLGMIWGDGRTEYKSALKSRLSITKDNSKSQVFLKMNSLQTDDTARYFCASDSKDPGSFAYWGQGTLVTVSA
VL: DVVMTQTHKFMSTSVGDRVSITCKASQDVSTAVAWYQQKSGQSPKLLISMASQRYTGVPDRFTGSGSGTDFTFTISSVQAEDLAVYYCQQHYAIPLTFGAGTKLELK
- binding result: binds

B2: scFv492.1 S93A Y99S Y100K G101D S102P D58E T31G H49S S50M Y52Q (mutant d) displayed on yeast (scFv, V domains shown)
VH: QVQLKQSGPGLVAPSQSLSITCTVSGFSLTGYGVNWVRQSPGKGLEWLGMIWGDGRTEYKSALKSRLSITKDNSKSQVFLKMNSLQTDDTARYFCASDSKDPGSFAYWGQGTLVTVSA
VL: DVVMTQTHKFMSTSVGDRVSITCKASQDVSGAVAWYQQKSGQSPKLLISMASQRYTGVPDRFTGSGSGTDFTFTISSVQAEDLAVYYCQQHYAIPLTFGAGTKLELK
- binding result: binds
